Assay results reported in PMC9482650, “Quantitative fragmentomics allow affinity mapping of interactomes” (Nature Communications, 2022).

T1: PDZD2_5, O15018
T1 sequence (O15018 2617-2716, limits assumed, looked up): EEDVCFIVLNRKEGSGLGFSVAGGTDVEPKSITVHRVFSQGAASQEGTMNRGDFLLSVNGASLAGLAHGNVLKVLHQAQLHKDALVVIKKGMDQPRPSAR

T2: USH1C_2, Q9Y6N9
T2 sequence (Q9Y6N9 206-303, limits assumed, looked up): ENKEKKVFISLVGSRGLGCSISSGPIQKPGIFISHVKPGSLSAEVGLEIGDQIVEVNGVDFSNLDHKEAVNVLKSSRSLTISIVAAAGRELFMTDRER

T3: NHERF1_2, O14745
T3 sequence (O14745 149-244, limits assumed, looked up): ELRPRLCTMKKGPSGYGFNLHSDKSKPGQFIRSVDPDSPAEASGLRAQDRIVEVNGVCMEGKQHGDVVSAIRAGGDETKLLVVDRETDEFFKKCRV

T4: MPDZ_6, O75970
T4 sequence (O75970 1003-1099, limits assumed, looked up): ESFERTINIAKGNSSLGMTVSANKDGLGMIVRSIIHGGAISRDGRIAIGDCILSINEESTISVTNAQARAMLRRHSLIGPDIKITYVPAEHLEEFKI

T5: PARD6B, Q9BYG5
T5 sequence (Q9BYG5 152-260, limits assumed, looked up): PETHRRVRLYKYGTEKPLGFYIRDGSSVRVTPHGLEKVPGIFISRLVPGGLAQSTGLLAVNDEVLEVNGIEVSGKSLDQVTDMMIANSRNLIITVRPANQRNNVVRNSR

T6: MPDZ_7, O75970
T6 sequence (O75970 1146-1253, limits assumed, looked up): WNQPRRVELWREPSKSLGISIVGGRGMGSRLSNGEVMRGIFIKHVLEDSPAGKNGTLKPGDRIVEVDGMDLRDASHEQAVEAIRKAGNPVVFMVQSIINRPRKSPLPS

T7: INTU, Q9ULD6
T7 sequence (Q9ULD6 180-273, limits assumed, looked up): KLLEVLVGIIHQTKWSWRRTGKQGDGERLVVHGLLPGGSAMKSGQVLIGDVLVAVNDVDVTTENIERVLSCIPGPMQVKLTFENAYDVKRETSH

T8: SHROOM3, Q8TF72
T8 sequence (Q8TF72 20-120, limits assumed, looked up): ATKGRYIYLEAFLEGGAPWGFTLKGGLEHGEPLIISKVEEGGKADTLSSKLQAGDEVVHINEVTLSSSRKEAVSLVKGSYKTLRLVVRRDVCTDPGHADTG

T9: PTPN13_4, Q12923
T9 sequence (Q12923 1783-1878, limits assumed, looked up): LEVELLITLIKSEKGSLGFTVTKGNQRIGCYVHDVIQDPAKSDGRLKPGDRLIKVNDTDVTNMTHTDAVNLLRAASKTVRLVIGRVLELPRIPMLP

T10: USH1C_3, Q9Y6N9
T10 sequence (Q9Y6N9 447-547, limits assumed, looked up): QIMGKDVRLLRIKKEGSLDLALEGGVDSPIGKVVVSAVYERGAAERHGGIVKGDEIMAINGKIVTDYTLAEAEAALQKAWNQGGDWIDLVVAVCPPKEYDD

T11: SHANK2, Q9UPX8
T11 sequence (Q9UPX8 621-730, limits assumed, looked up): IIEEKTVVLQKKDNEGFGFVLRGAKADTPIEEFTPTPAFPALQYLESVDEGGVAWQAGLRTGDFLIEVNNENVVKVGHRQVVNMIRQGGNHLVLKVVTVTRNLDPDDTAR

T12: PTPN4, P29074
T12 sequence (P29074 512-599, limits assumed, looked up): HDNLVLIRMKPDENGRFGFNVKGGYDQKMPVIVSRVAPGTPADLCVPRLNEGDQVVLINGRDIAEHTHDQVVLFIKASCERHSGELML

B1: HPV30-E6, P36809 (peptide)
chain: RHTTSTETAV

target: MAGI3_3, Q5TCQ9; test: holdup assay; design: key: below the threshold = too weak to quantify, mostly under pKd 3.1 to 4; settings: plain residues with an end cap or a label only (N-terminal biotin on a linker: ttds)
Sequence (Q5TCQ9 572-655): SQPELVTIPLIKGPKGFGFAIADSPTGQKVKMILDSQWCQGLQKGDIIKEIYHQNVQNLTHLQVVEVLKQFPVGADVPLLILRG

Binder	pKd
B1	below the threshold

target: T1, PDZD2_5, O15018; test: holdup assay; design: key: below the threshold = too weak to quantify, mostly under pKd 3.1 to 4; settings: plain residues with an end cap or a label only (N-terminal biotin on a linker: ttds)

Binder	pKd
B1	below the threshold

target: PARD3B_2, Q8TEW8; test: holdup assay; design: key: below the threshold = too weak to quantify, mostly under pKd 3.1 to 4; settings: plain residues with an end cap or a label only (N-terminal biotin on a linker: ttds)
Sequence (Q8TEW8 376-471): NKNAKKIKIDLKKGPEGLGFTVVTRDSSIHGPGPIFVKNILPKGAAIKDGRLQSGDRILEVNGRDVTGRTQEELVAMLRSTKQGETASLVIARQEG

Binder	pKd
B1	below the threshold

target: DLG2_1, Q15700; test: holdup assay; design: key: below the threshold = too weak to quantify, mostly under pKd 3.1 to 4; settings: plain residues with an end cap or a label only (N-terminal biotin on a linker: ttds)

Binder	pKd
B1	4.84

target: CNKSR3, Q6P9H4; test: holdup assay; design: key: below the threshold = too weak to quantify, mostly under pKd 3.1 to 4; settings: plain residues with an end cap or a label only (N-terminal biotin on a linker: ttds)
Sequence (Q6P9H4 203-303): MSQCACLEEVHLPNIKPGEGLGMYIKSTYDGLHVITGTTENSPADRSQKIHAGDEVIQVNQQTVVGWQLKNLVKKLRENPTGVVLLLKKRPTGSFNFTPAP

Binder	pKd
B1	below the threshold

target: SCRIB_4, Q14160; test: holdup assay; design: key: below the threshold = too weak to quantify, mostly under pKd 3.1 to 4; settings: plain residues with an end cap or a label only (N-terminal biotin on a linker: ttds)
Sequence (Q14160 1095-1204): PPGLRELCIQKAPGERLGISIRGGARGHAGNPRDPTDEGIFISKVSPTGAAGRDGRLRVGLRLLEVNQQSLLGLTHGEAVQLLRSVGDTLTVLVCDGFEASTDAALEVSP

Binder	pKd
B1	4.59

target: T2, USH1C_2, Q9Y6N9; test: holdup assay; design: key: below the threshold = too weak to quantify, mostly under pKd 3.1 to 4; settings: plain residues with an end cap or a label only (N-terminal biotin on a linker: ttds)

Binder	pKd
B1	below the threshold

target: T3, NHERF1_2, O14745; test: holdup assay; design: key: below the threshold = too weak to quantify, mostly under pKd 3.1 to 4; settings: plain residues with an end cap or a label only (N-terminal biotin on a linker: ttds)

Binder	pKd
B1	below the threshold

target: RIMS2, Q9UQ26; test: holdup assay; design: key: below the threshold = too weak to quantify, mostly under pKd 3.1 to 4; settings: plain residues with an end cap or a label only (N-terminal biotin on a linker: ttds)
Sequence (Q9UQ26 637-758): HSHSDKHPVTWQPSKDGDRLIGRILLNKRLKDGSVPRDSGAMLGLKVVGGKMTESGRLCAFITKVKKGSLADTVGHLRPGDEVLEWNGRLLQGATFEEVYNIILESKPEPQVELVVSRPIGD

Binder	pKd
B1	below the threshold

target: PDLIM4, P50479; test: holdup assay; design: key: below the threshold = too weak to quantify, mostly under pKd 3.1 to 4; settings: plain residues with an end cap or a label only (N-terminal biotin on a linker: ttds)
Sequence (P50479 1-83): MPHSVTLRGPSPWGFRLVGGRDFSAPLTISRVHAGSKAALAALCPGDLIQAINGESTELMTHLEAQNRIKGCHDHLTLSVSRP

Binder	pKd
B1	below the threshold

target: MAGI1_6, Q96QZ7; test: holdup assay; design: key: below the threshold = too weak to quantify, mostly under pKd 3.1 to 4; settings: plain residues with an end cap or a label only (N-terminal biotin on a linker: ttds)
Sequence (Q96QZ7 1146-1238): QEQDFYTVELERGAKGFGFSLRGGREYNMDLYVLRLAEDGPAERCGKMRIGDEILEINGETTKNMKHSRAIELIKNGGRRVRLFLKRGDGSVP

Binder	pKd
B1	4.73

target: T4, MPDZ_6, O75970; test: holdup assay; design: key: below the threshold = too weak to quantify, mostly under pKd 3.1 to 4; settings: plain residues with an end cap or a label only (N-terminal biotin on a linker: ttds)

Binder	pKd
B1	below the threshold

target: T5, PARD6B, Q9BYG5; test: holdup assay; design: key: below the threshold = too weak to quantify, mostly under pKd 3.1 to 4; settings: plain residues with an end cap or a label only (N-terminal biotin on a linker: ttds)

Binder	pKd
B1	below the threshold

target: TJP1_1, Q07157; test: holdup assay; design: key: below the threshold = too weak to quantify, mostly under pKd 3.1 to 4; settings: plain residues with an end cap or a label only (N-terminal biotin on a linker: ttds)
Sequence (Q07157 18-120): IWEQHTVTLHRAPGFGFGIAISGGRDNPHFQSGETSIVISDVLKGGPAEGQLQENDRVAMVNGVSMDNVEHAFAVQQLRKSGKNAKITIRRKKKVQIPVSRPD

Binder	pKd
B1	below the threshold

target: T6, MPDZ_7, O75970; test: holdup assay; design: key: below the threshold = too weak to quantify, mostly under pKd 3.1 to 4; settings: plain residues with an end cap or a label only (N-terminal biotin on a linker: ttds)

Binder	pKd
B1	below the threshold

target: T7, INTU, Q9ULD6; test: holdup assay; design: key: below the threshold = too weak to quantify, mostly under pKd 3.1 to 4; settings: plain residues with an end cap or a label only (N-terminal biotin on a linker: ttds)

Binder	pKd
B1	below the threshold

target: T8, SHROOM3, Q8TF72; test: holdup assay; design: key: below the threshold = too weak to quantify, mostly under pKd 3.1 to 4; settings: plain residues with an end cap or a label only (N-terminal biotin on a linker: ttds)

Binder	pKd
B1	below the threshold

target: T9, PTPN13_4, Q12923; test: holdup assay; design: key: below the threshold = too weak to quantify, mostly under pKd 3.1 to 4; settings: plain residues with an end cap or a label only (N-terminal biotin on a linker: ttds)

Binder	pKd
B1	below the threshold

target: T10, USH1C_3, Q9Y6N9; test: holdup assay; design: key: below the threshold = too weak to quantify, mostly under pKd 3.1 to 4; settings: plain residues with an end cap or a label only (N-terminal biotin on a linker: ttds)

Binder	pKd
B1	below the threshold

target: IL16_2, Q14005; test: holdup assay; design: key: below the threshold = too weak to quantify, mostly under pKd 3.1 to 4; settings: plain residues with an end cap or a label only (N-terminal biotin on a linker: ttds)
Sequence (Q14005 350-450): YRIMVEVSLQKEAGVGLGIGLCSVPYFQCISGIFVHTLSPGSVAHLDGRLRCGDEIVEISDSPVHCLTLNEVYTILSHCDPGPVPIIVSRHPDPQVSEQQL

Binder	pKd
B1	below the threshold

target: MAGI1_3, Q96QZ7; test: holdup assay; design: key: below the threshold = too weak to quantify, mostly under pKd 3.1 to 4; settings: plain residues with an end cap or a label only (N-terminal biotin on a linker: ttds)
Sequence (Q96QZ7 638-725): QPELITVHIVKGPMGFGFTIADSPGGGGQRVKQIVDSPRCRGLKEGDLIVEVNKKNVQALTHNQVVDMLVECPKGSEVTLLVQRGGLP

Binder	pKd
B1	4.72

target: NHERF2_1, Q15599; test: holdup assay; design: key: below the threshold = too weak to quantify, mostly under pKd 3.1 to 4; settings: plain residues with an end cap or a label only (N-terminal biotin on a linker: ttds)
Sequence (Q15599 9-91): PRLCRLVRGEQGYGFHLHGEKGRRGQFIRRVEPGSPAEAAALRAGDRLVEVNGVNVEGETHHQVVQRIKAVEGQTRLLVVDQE

Binder	pKd
B1	below the threshold

target: MAGI1_4, Q96QZ7; test: holdup assay; design: key: below the threshold = too weak to quantify, mostly under pKd 3.1 to 4; settings: plain residues with an end cap or a label only (N-terminal biotin on a linker: ttds)
Sequence (Q96QZ7 other isoform, or with tags, fused parts or gaps): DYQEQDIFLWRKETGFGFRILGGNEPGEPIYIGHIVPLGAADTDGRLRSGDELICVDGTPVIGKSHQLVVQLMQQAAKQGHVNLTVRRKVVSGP

Binder	pKd
B1	below the threshold

target: T11, SHANK2, Q9UPX8; test: holdup assay; design: key: below the threshold = too weak to quantify, mostly under pKd 3.1 to 4; settings: plain residues with an end cap or a label only (N-terminal biotin on a linker: ttds)

Binder	pKd
B1	below the threshold

target: T12, PTPN4, P29074; test: holdup assay; design: key: below the threshold = too weak to quantify, mostly under pKd 3.1 to 4; settings: plain residues with an end cap or a label only (N-terminal biotin on a linker: ttds)

Binder	pKd
B1	4.72

target: RIMS1, Q86UR5; test: holdup assay; design: key: below the threshold = too weak to quantify, mostly under pKd 3.1 to 4; settings: plain residues with an end cap or a label only (N-terminal biotin on a linker: ttds)
Sequence (Q86UR5 584-692): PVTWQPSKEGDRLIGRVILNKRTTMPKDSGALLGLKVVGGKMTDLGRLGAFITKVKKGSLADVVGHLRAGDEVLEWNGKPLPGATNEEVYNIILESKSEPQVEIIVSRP

Binder	pKd
B1	below the threshold
